In publication PMC4328881:

Legend:
[1] = molecular target: full-length 26 kDa (227 amino acids) OSM (human); test: SPR
[2] = molecular target: 22 kDa (196 amino acids) OSM (human) (UniProt P13725); test: SPR
Sequence of 22 kDa (196 amino acids) OSM (human) (P13725 26-221): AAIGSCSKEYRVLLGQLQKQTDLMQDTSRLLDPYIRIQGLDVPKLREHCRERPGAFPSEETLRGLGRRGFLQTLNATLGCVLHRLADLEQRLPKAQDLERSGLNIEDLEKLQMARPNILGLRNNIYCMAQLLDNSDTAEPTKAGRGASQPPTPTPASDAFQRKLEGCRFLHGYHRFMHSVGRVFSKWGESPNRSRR

Sequence of fibronectin, P02751 32-2477 (natural protein; ; other documents disagree on this pair) (P02751 32-2477): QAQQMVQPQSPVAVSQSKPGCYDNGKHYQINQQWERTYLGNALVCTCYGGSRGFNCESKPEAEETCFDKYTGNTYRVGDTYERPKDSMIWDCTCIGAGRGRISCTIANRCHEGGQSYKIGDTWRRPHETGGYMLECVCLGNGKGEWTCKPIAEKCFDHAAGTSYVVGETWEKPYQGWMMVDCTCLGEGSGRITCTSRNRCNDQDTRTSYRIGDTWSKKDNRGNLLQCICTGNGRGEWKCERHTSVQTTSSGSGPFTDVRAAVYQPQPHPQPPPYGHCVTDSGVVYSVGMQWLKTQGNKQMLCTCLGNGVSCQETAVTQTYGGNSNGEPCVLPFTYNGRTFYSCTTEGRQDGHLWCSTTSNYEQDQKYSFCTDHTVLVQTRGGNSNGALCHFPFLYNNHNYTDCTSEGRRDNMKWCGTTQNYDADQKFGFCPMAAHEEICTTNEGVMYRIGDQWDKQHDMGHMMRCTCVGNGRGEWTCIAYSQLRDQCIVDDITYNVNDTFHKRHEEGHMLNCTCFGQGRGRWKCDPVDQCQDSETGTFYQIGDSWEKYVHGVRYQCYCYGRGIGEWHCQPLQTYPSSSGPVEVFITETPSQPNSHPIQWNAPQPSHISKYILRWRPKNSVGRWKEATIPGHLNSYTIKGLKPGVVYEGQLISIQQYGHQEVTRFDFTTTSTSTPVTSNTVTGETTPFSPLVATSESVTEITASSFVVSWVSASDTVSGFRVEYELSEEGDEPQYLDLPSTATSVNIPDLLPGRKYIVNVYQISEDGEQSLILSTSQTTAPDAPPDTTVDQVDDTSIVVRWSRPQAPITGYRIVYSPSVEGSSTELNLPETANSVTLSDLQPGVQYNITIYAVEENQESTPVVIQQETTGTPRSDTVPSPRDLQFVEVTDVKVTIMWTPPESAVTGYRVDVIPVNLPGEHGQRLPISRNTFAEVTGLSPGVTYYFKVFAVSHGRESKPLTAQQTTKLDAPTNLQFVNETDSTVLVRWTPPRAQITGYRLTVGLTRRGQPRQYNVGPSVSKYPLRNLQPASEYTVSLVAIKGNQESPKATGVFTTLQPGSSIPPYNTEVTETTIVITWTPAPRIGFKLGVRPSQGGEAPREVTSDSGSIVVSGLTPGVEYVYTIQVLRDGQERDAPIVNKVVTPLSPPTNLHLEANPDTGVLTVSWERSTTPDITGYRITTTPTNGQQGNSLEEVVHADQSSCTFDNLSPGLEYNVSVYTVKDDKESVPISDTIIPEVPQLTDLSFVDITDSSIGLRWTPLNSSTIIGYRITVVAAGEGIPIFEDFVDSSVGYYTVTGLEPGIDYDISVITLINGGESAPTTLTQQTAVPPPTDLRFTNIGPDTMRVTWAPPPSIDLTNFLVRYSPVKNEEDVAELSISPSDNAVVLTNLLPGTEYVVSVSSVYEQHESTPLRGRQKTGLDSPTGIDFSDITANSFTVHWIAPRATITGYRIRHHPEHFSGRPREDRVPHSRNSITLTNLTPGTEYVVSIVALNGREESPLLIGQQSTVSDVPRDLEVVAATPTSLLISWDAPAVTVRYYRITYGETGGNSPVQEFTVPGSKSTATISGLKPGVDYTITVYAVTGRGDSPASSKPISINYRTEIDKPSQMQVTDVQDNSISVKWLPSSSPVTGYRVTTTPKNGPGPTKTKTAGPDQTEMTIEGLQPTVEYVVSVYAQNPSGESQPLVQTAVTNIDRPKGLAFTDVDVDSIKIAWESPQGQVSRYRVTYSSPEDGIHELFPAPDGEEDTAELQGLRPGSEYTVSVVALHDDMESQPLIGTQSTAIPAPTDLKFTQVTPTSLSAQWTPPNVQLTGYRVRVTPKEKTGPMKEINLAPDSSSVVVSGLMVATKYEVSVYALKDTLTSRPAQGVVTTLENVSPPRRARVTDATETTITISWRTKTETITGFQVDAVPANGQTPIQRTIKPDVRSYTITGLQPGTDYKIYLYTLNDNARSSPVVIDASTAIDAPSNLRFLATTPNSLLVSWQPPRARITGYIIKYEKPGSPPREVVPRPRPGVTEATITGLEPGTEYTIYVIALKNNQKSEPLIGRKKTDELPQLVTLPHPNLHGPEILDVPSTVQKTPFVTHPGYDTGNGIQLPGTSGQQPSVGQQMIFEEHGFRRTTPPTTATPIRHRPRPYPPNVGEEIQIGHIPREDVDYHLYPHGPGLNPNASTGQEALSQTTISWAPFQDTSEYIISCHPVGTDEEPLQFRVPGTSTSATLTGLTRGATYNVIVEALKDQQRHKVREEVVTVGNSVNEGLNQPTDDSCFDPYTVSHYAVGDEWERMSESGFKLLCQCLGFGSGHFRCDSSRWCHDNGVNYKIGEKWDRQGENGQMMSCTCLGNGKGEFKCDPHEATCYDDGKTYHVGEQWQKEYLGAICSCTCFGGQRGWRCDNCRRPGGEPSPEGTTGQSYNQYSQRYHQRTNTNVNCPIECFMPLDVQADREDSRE

| Substance | Kd [1] [µM] | Kd [2] [µM] |
| --- | --- | --- |
| laminin (complex) | 0.844 | 0.936 |
| fibronectin, P02751 32-2477 (natural protein; ; other documents disagree on this pair) | 1170 | – |
